{
  "source": "patent US20190142956A1",
  "molecules": {"B1": {"name": "functional upstream domain (FUD) peptide (peptide)", "peptide": "KDQSPLAGESGETEYITEVYGNQQNPVDIDKKLPNETGFSGNMVETEDT"}, "B2": {"name": "20 kDa PEG-FUD (peptide)", "peptide": "{mPEG 20 kDa}-KDQSPLAGESGETEYITEVYGNQQNPVDIDKKLPNETGFSGNMVETEDT", "modifications": "not fully specified"}},
  "key": {"[1]": {"target": "human plasma fibronectin (human) (UniProt P02751)", "test": "ITC, peptide injected into human plasma FN, PBS pH 7.4, 25 C, triplicate", "parameters": "ΔS: unit not given here"}, "[2]": {"target": "human plasma fibronectin (human) (UniProt P02751)", "test": "cell-based or functional assay"}, "[3]": {"target": "EDA-containing cellular fibronectin made by human fibroblasts and human proximal tubular epithelial cells (human), P02751", "sequence (P02751 32-2477)": "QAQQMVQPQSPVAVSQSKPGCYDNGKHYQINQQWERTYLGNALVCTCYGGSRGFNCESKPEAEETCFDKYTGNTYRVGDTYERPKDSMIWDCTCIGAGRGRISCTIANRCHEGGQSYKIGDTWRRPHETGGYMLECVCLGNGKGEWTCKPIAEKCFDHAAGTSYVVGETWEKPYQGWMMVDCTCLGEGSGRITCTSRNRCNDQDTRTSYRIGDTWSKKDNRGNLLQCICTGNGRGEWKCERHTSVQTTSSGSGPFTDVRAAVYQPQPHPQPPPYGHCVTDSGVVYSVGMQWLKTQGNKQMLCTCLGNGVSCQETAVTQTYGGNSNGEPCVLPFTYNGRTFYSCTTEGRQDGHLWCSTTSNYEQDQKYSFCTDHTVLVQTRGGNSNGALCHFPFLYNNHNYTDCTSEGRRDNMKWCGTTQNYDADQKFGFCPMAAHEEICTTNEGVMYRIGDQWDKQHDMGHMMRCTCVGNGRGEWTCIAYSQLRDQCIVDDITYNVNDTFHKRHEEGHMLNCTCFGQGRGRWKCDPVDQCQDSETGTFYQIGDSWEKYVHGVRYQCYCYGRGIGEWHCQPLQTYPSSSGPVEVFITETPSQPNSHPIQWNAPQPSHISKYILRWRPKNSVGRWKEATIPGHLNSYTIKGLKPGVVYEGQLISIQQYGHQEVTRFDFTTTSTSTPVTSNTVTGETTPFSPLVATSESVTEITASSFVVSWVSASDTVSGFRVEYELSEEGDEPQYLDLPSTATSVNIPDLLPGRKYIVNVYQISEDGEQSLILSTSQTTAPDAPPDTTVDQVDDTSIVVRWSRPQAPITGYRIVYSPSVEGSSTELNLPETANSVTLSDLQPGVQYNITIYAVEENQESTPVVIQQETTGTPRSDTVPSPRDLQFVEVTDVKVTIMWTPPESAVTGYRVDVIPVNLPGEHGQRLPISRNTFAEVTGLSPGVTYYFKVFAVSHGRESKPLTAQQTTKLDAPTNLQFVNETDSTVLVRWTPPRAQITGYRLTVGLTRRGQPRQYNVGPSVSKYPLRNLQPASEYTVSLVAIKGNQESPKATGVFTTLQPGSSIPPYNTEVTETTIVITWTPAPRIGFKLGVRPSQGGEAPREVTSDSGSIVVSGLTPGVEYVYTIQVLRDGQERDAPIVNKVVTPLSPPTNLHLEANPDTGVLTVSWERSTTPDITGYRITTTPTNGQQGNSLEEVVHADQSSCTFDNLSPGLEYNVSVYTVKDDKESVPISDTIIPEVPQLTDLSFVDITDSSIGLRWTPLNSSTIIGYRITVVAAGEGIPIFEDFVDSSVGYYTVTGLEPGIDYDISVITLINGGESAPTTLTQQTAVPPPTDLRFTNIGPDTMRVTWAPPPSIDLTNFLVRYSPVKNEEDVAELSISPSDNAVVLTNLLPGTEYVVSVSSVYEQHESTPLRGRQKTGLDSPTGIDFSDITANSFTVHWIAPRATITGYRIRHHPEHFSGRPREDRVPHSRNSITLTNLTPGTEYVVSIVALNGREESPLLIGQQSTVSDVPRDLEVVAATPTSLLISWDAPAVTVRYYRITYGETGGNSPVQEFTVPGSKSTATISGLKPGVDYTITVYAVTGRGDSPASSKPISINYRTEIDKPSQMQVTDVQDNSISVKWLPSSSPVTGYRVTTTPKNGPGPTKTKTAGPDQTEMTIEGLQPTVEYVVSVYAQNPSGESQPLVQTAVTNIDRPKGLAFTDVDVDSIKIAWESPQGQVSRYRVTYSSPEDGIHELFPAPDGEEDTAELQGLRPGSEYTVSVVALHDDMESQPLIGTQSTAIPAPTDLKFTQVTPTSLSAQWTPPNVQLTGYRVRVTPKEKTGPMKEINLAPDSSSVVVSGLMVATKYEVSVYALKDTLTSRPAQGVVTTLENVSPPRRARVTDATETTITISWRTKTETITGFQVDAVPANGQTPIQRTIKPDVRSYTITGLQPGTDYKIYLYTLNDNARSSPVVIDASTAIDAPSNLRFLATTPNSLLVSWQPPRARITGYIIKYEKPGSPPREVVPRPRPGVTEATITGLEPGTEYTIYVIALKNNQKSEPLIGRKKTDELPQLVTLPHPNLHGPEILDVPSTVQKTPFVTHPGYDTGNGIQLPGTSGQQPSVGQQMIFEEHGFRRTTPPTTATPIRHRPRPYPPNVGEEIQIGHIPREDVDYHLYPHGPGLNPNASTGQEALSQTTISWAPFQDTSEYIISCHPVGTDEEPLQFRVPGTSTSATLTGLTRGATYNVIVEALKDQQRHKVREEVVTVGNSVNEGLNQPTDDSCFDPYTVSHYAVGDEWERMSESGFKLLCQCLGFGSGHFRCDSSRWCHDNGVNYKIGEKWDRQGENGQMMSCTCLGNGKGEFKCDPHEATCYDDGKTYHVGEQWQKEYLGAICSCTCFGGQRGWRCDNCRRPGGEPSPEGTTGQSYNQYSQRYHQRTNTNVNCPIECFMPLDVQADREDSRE", "test": "cell-based or functional assay"}},
  "note": "Where no end group is shown, it is not given here.",
  "data": [
    {"molecule": "10 kDa PEG-FUD (peptide)", "values": [
      {"measurement": "Kd", "setting": "[1]", "result": 4.6, "unit": "nM"},
      {"measurement": "n", "setting": "[1]", "result": 1.55},
      {"measurement": "ΔG", "setting": "[1]", "result": -11.4, "unit": "kcal/mol"},
      {"measurement": "ΔH", "setting": "[1]", "result": -34, "unit": "kcal/mol"},
      {"measurement": "ΔS", "setting": "[1]", "result": -74}
    ]},
    {"molecule": "20 kDa PEG-FUD (peptide)", "values": [
      {"measurement": "IC50, inhibition of A488-FN fibrillogenesis", "setting": "[2]", "result": "25 to 30", "unit": "nM"},
      {"measurement": "percent inhibition of A488-FN fibrillogenesis, doses up to 20 µM", "setting": "[2]", "result": 60, "unit": "%"},
      {"measurement": "Kd", "setting": "[1]", "result": 10, "unit": "nM"},
      {"measurement": "n", "setting": "[1]", "result": 1.63},
      {"measurement": "ΔG", "setting": "[1]", "result": -10, "unit": "kcal/mol"},
      {"measurement": "ΔH", "setting": "[1]", "result": -30, "unit": "kcal/mol"},
      {"measurement": "ΔS", "setting": "[1]", "result": -66}
    ]},
    {"molecule": "40 kDa PEG-FUD (peptide)", "values": [
      {"measurement": "Kd", "setting": "[1]", "result": 14.7, "unit": "nM"},
      {"measurement": "n", "setting": "[1]", "result": 1.43},
      {"measurement": "ΔG", "setting": "[1]", "result": -10.9, "unit": "kcal/mol"},
      {"measurement": "ΔH", "setting": "[1]", "result": -32.5, "unit": "kcal/mol"},
      {"measurement": "ΔS", "setting": "[1]", "result": -73}
    ]},
    {"molecule": "functional upstream domain (FUD) peptide", "values": [
      {"measurement": "IC50, inhibition of A488-FN fibrillogenesis", "setting": "[2]", "result": "25 to 30", "unit": "nM"},
      {"measurement": "percent inhibition of A488-FN fibrillogenesis, doses up to 20 µM", "setting": "[2]", "result": 60, "unit": "%"},
      {"measurement": "Kd", "setting": "[1]", "result": 6, "unit": "nM"},
      {"measurement": "n", "setting": "[1]", "result": 1.59},
      {"measurement": "ΔG", "setting": "[1]", "result": -11.4, "unit": "kcal/mol"},
      {"measurement": "ΔH", "setting": "[1]", "result": -31, "unit": "kcal/mol"},
      {"measurement": "ΔS", "setting": "[1]", "result": -65}
    ]},
    {"molecule": "B1", "values": [
      {"measurement": "IC50, inhibition of endogenous EDA+-fibronectin fibrillogenesis (human fibroblasts and HK-2 cells)", "setting": "[3]", "result": 30, "unit": "nM"}
    ]},
    {"molecule": "B2", "values": [
      {"measurement": "IC50, inhibition of endogenous EDA+-fibronectin fibrillogenesis (human fibroblasts and HK-2 cells)", "setting": "[3]", "result": 30, "unit": "nM"}
    ]}
  ]
}
